Targets include JNK3(h) (Homo sapiens, UniProt P53779); ZIPK(h) (Homo sapiens, UniProt O43293); EGFR(L858R)(h) (Homo sapiens, UniProt P00533, L858R); STK33(h) (Homo sapiens, UniProt Q9BYT3); LOK(h) (Homo sapiens, UniProt O94804); MLK1(h) (Homo sapiens, UniProt P80192); cKit(V654A)(h) (Homo sapiens, UniProt P10721, V654A); MAPKAP-K3(h) (Homo sapiens, UniProt Q16644).
Holding throughout (assay): Kinase Profiling Assay
Type in all cases: biochemical
Holding throughout (settings): 100 μM

Another assay addresses T1, DYRK2(h) (Homo sapiens, UniProt Q92630).
T1 sequence (Q92630 1-601): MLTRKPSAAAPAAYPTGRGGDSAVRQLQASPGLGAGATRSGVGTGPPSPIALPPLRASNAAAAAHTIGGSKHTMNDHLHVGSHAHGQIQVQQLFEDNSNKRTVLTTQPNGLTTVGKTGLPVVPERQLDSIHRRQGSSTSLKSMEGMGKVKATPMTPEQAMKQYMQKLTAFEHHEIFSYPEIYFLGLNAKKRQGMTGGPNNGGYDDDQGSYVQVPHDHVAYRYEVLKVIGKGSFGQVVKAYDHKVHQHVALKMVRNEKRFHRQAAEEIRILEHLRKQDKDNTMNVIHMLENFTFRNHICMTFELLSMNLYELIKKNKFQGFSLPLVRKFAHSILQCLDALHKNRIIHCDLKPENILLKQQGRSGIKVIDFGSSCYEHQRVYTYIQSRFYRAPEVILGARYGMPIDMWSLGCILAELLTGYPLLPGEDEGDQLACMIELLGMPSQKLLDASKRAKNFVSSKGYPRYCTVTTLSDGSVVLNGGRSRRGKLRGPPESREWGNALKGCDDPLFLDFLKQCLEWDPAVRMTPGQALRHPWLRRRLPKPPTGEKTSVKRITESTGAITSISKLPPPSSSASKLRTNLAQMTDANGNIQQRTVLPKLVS

The target in another assay is T2, EphB1(h) (Homo sapiens, UniProt P54762).
T2 sequence (P54762 18-984): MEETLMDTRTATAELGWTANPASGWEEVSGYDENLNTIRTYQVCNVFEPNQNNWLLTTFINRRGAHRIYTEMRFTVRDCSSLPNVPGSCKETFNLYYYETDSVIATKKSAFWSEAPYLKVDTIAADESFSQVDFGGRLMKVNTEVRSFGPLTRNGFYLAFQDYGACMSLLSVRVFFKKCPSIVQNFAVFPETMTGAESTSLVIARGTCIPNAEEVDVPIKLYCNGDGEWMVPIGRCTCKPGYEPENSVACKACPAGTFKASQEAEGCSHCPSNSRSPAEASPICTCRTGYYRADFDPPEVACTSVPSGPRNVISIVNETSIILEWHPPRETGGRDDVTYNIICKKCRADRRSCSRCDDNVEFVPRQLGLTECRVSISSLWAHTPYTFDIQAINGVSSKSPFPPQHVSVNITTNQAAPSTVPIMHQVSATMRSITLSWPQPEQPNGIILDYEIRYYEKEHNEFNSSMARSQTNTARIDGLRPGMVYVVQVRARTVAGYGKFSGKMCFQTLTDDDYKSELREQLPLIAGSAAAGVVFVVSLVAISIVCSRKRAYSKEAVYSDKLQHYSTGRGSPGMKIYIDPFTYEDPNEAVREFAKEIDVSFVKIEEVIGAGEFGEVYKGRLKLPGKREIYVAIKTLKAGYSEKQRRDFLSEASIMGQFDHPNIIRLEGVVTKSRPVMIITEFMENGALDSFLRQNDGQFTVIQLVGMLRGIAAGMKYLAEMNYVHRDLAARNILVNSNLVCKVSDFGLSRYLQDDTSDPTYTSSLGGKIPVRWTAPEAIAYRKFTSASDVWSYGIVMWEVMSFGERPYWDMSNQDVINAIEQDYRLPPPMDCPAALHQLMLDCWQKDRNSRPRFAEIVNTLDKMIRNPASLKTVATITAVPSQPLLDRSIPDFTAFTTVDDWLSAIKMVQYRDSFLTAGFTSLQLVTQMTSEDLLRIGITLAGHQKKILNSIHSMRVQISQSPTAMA

Another assay addresses T3, GCK(h) (Homo sapiens, UniProt Q12851).
T3 sequence (Q12851 1-820): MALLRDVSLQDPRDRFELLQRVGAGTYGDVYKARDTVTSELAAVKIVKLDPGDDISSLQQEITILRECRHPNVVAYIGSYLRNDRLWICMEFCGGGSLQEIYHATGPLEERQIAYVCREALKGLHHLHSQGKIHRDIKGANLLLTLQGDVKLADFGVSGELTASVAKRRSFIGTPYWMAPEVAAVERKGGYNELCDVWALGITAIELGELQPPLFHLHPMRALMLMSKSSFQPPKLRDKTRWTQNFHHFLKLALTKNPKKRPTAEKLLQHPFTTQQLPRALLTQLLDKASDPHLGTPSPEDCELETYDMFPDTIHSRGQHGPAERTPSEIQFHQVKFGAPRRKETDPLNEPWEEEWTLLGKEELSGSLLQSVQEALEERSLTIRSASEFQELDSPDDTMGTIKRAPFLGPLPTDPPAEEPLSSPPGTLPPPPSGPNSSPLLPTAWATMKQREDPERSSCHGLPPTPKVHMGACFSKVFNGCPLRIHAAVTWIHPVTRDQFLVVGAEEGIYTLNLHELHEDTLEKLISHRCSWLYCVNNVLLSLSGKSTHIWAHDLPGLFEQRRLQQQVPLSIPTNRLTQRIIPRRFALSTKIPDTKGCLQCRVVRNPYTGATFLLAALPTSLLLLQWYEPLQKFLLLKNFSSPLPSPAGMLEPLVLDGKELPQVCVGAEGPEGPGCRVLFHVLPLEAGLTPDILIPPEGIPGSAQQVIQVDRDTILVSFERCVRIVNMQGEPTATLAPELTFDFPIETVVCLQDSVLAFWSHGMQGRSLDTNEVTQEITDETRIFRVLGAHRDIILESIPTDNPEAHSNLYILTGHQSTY

LOK(h), sequence (O94804 whole entry): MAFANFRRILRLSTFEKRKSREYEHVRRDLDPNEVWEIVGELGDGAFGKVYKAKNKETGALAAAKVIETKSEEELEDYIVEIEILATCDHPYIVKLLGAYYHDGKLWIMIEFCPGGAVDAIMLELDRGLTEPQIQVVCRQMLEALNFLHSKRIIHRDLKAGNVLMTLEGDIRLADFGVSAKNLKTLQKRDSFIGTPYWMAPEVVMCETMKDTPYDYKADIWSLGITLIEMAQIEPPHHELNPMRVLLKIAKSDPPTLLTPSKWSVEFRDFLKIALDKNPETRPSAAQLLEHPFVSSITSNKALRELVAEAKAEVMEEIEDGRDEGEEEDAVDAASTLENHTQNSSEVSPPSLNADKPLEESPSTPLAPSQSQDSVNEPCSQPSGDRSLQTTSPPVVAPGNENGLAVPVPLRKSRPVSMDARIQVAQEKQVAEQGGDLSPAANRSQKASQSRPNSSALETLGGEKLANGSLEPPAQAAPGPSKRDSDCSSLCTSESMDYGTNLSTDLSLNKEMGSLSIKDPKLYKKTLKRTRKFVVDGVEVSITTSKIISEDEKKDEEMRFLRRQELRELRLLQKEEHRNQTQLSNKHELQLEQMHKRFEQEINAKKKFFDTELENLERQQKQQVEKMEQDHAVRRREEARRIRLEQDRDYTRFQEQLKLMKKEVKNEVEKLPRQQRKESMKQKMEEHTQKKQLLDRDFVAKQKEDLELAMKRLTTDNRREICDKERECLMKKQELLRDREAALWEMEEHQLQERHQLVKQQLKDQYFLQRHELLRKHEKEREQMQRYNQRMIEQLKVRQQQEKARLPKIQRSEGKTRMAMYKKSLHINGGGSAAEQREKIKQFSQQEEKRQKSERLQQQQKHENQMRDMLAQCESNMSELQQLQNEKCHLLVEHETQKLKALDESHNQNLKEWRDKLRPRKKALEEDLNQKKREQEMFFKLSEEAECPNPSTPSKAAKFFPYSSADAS
MLK1(h), sequence (P80192 whole entry): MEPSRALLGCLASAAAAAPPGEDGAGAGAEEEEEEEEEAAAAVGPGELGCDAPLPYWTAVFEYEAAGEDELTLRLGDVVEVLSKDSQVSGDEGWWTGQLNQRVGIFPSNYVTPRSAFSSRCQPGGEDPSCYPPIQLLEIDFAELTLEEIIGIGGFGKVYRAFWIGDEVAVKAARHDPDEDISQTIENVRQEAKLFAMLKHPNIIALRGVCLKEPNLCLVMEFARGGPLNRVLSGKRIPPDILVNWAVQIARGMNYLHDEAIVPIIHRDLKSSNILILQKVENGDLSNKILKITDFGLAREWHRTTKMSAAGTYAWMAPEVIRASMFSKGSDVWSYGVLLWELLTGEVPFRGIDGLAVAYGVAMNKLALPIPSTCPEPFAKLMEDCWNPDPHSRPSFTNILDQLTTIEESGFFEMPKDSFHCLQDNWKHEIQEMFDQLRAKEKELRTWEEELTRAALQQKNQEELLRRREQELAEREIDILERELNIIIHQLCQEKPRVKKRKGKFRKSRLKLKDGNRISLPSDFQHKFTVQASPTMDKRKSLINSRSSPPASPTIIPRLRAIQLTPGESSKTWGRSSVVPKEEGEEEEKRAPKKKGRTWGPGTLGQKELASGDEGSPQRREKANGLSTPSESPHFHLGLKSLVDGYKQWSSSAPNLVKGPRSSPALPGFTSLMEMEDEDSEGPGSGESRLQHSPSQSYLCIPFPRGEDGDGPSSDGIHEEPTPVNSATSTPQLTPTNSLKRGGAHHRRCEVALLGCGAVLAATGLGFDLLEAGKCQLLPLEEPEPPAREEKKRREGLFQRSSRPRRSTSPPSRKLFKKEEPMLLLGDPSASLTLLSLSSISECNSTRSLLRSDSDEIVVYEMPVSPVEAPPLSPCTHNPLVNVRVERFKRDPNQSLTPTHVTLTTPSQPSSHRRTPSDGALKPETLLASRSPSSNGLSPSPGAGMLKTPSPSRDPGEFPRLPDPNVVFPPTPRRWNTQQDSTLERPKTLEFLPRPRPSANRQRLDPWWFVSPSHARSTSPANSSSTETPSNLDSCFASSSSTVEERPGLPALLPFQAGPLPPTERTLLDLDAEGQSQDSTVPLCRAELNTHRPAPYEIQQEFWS
JNK3(h), sequence (P53779 whole entry): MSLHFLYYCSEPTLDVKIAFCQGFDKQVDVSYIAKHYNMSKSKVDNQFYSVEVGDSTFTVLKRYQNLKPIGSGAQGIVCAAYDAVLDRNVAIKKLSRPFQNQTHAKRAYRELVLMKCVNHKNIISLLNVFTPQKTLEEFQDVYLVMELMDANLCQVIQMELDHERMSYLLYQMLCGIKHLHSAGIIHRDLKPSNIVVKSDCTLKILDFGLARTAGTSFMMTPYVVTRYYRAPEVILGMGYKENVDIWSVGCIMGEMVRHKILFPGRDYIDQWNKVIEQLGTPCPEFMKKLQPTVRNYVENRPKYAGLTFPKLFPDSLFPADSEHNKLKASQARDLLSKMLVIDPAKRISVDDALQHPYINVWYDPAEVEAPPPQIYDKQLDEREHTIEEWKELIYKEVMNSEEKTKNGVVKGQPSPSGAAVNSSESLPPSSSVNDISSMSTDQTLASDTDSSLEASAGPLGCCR
ZIPK(h), sequence (O43293 whole entry): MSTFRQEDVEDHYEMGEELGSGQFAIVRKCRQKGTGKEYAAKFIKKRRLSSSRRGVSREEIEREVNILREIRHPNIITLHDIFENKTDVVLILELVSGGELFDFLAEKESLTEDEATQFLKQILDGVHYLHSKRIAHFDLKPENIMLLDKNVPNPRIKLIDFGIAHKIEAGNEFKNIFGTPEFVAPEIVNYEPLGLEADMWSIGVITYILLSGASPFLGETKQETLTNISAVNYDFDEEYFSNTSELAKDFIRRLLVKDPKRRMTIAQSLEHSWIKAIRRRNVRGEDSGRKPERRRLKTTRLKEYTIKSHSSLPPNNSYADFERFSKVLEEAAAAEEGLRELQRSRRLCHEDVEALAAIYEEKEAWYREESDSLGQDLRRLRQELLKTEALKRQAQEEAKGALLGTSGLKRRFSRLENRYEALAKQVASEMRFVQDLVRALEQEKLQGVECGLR
MAPKAP-K3(h), sequence (Q16644 whole entry): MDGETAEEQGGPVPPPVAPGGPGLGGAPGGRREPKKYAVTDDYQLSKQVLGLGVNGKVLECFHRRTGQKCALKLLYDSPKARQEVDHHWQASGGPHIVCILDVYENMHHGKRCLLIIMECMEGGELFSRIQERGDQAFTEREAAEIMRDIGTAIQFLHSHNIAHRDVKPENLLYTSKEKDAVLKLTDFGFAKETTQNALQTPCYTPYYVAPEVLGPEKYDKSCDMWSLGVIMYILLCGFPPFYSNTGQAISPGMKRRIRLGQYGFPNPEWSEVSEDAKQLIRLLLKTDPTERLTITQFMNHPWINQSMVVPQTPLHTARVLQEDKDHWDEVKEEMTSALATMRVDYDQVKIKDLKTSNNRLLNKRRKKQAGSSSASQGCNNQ
STK33(h), sequence (Q9BYT3 whole entry): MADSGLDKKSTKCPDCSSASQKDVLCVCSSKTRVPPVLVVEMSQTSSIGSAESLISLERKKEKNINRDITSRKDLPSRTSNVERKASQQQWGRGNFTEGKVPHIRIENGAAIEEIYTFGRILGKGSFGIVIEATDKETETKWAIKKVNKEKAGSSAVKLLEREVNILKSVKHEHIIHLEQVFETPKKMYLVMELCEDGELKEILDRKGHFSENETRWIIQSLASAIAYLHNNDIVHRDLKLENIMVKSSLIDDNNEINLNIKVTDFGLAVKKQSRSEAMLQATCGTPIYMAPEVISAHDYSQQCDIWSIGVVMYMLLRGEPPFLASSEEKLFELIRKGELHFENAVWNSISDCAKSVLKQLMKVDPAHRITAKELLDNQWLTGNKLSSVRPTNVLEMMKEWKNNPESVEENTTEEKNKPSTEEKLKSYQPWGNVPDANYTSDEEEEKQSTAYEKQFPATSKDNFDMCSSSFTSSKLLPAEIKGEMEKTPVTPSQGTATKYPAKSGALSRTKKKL

As for HRRIKAWLKKIKALARQLGVAA [MMI-0500], the “% activity” value was 171% with JNK3(h); 1% with ZIPK(h); 127% in the assay with DYRK2(h); 26% in the assay with EGFR(L858R)(h); 37% with EphB1(h); 16% with STK33(h). Further, the “% activity” value with LOK(h) is recorded as 7%; in the assay with MLK1(h) it was 43%; with cKit(V654A)(h), 223%; with GCK(h), 30%; with MAPKAP-K3(h) it was 9%.

Turning to YARAAARQARAKALNRQLGVA [MMI-0200], the “% activity” value in the assay with JNK3(h) is reported as 90%; with ZIPK(h), 67%; in the assay with DYRK2(h), 142%; in the assay with EGFR(L858R)(h), 120%; in the assay with EphB1(h), 95%; with STK33(h), 98%. The “% activity” value with LOK(h) is listed as 67%; with MLK1(h) it was 84%; in the assay with GCK(h) it was 99%; with MAPKAP-K3(h) it was 39%.

Take KAFAKLAARLYRKALARQLGVAA [MMI-0400]: the “% activity” value in the assay with JNK3(h) was 70%; with ZIPK(h) it was 13%; with DYRK2(h), 195%; with EGFR(L858R)(h), 52%; with EphB1(h) it was 58%; with STK33(h), 52%. The “% activity” value was determined as 18% with LOK(h); 33% with MLK1(h); 150% in the assay with cKit(V654A)(h); 66% in the assay with GCK(h); 7% with MAPKAP-K3(h).

For FAKLAARLYRKALARQLGVAA [MMI-0300], the “% activity” value with JNK3(h) turned out to be 89%; with ZIPK(h) it was 28%; in the assay with DYRK2(h), 155%; in the assay with EphB1(h), 44%; in the assay with STK33(h), 45%; in the assay with LOK(h), 37%. Further, the “% activity” value in the assay with MLK1(h) worked out at 40%; in the assay with cKit(V654A)(h) it was 134%; with GCK(h), 70%; with MAPKAP-K3(h), 3%.

(Values after patent US20190134153A1, “IMMUNOMODULATORY EFFECT OF INHALED KINASE INHIBITOR PEPTIDES IN LUNG” (MOERAE MATRIX, INC., priority 2017, published 2019).)
